# According to IntAct's records for PubMed 22801494:
# B1: Interferon-induced, double-stranded RNA-activated protein kinase (Homo sapiens), P19525 (parent)
# chain: MAGDLSAGFFMEELNTYRQKQGVVLKYQELPNSGPPHDRRFTFQVIIDGREFPEGEGRSKKEAKNAAAKLAVEILNKEKKAVSPLLLTTTNSSEGLSMGNYIGLINRIAQKKRLTVNYEQCASGVHGPEGFHYKCKMGQKEYSIGTGSTKQEAKQLAAKLAYLQILSEETSVKSDYLSSGSFATTCESQSNSLVTSTLASESSSEGDFSADTSEINSNSDSLNSSSLLMNGLRNNQRKAKRSLAPRFDLPDMKETKYTVDKRFGMDFKEIELIGSGGFGQVFKAKHRIDGKTYVIKRVKYNNEKAEREVKALAKLDHVNIVHYNGCWDGFDYDPETSDDSLESSDYDPENSKNSSRSKTKCLFIQMEFCDKGTLEQWIEKRRGEKLDKVLALELFEQITKGVDYIHSKKLIHRDLKPSNIFLVDTKQVKIGDFGLVTSLKNDGKRTRSKGTLRYMSPEQISSQDYGKEVDLYALGLILAELLHVCDTAFETSKFFTDLRDGIISDIFDKKEKTLLQKLLSKKPEDRPNTSEILRTLTVWKKSPEKNERHTC
# Variants of: B1
# Conditions: with nlrp3_human NLRP3, Q96P20
# nlrp3_human NLRP3, Q96P20, sequence (Q96P20 whole entry): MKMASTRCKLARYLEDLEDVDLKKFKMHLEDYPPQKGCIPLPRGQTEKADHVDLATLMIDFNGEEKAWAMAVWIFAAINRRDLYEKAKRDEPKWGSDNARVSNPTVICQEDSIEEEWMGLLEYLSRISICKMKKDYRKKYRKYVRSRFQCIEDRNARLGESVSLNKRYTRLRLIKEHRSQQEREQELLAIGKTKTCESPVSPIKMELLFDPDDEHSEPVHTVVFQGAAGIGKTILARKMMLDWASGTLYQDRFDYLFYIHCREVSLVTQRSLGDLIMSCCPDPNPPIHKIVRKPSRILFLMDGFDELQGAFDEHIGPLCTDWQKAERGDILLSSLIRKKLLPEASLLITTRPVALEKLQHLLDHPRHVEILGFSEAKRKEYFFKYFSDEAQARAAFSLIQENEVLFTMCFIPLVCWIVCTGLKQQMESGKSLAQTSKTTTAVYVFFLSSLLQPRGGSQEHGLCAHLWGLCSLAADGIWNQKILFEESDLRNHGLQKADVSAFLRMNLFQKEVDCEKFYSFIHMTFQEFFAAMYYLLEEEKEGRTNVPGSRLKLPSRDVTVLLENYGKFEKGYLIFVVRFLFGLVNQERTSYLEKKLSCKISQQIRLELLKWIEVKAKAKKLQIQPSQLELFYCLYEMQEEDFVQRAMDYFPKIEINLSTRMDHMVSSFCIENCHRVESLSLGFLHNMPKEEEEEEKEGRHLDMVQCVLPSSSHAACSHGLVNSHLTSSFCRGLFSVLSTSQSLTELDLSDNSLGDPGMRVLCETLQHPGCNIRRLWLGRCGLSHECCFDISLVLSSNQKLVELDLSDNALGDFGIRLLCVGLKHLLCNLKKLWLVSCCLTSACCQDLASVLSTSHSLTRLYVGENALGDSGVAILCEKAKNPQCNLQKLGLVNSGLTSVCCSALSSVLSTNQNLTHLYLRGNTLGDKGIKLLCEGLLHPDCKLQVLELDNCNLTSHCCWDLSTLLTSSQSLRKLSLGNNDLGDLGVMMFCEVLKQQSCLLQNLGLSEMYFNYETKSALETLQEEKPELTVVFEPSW
row,Variant,effect of a mutation on the interaction
1,MAGDLSAGFFMEELNTYRQKQGVVLKYQELPNSGPPHDRRFTFQVIIDGREFPEGEGRSKKEAKNAAAKLAVEILNKEKKAVSPLLLTTTNSSEGLSMGNYIGLINRIAQKKRLTVNYEQCASGVHGPEGFHYKCKMGQKEYSIGTGSTKQEAKQLAAKLAYLQILSEETSVKSDYLSSGSFATTCESQSNSLVTSTLASESSSEGDFSADTSEINSNSDSLNSSSLLMNGLRNNQRKAKRSLAPRFDLPDMKETKYTVDKRFGMDFKEIELIGSGGFGQVFKAKHRIDGKTYVIRRVKYNNEKAEREVKALAKLDHVNIVHYNGCWDGFDYDPETSDDSLESSDYDPENSKNSSRSKTKCLFIQMEFCDKGTLEQWIEKRRGEKLDKVLALELFEQITKGVDYIHSKKLIHRDLKPSNIFLVDTKQVKIGDFGLVTSLKNDGKRTRSKGTLRYMSPEQISSQDYGKEVDLYALGLILAELLHVCDTAFETSKFFTDLRDGIISDIFDKKEKTLLQKLLSKKPEDRPNTSEILRTLTVWKKSPEKNERHTC [K296R],disrupting interaction strength
